From patent US20090291081A1 (AbbVie / Abbott, published 2009)
Positions count from the first letter of the chain named. Several values for one entry are separate records, joined by “and”; a condition that tells them apart may be missing. Equal values may be shown once.

T1: human IL-1α (human, UniProt P01583 113-271)
T1 construct: also called IL-1alpha; hIL-1α
T1 sequence (looked up): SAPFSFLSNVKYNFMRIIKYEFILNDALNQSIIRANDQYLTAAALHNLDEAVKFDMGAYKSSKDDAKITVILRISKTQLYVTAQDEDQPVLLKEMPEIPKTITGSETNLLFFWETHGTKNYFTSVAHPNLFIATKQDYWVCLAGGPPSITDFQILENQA

T2: human IL-1α (human, UniProt P01583 113-271)
T2 sequence (looked up): T1 sequence (looked up)

B1: ABT1-96 (other)
VH: EVQLLESGGGLVQPGGSLRLSCAASGFTFNQYNMFWVRQAPGKGLEWVSVISGSGRFTYYADSVKGRFTISRDNSKNTLYLQMNSLRAEDTAVYYCAKGWWRRDPPFDYWGQGTLVTVSS
notes: VH dAb
B2: ABT1-6-23 (other)
VH: EVQLLESGGGLVQPGGSLRLSCAASGFTFVRYDMAWVRQAPGKGLEWVSSIYKSGALTSYADSVKGRFTISRDNSKNTLYLQMNSLRAEDTAVYYCAKGWASFDYWGQGTLVTVSS
notes: VH dAb
B3: ABT1-95 (other)
VL: DIQMTQSPSSLSASVGDRVTITCRASQPIHGNLRWYQQKPGKAPKLLIYNISNLQSGVPSRFSGSGSGTDFTLTISSLQPEDFATYYCQQGYRWPVTFGQGTKVEIKR
notes: VK dAb
B4: ABT1-122 (other)
VL: DIQMTQSPSSLSASVGDRVTITCRASQPIWTELNWYQQKPGKAPKLLIYGSSSLQSGVPSRFSGSGSGTDFTLTISSLQPEDFATYYCQQFAYFPATFGQGTKVEIKR
notes: VK dAb
B5: ABT1-141 (other)
VL: DIQMTQSPSSLSASVGDRVTITCRASQWIQKQLAWYQQKPGKAPKLLIYSSSYLQSGVPSRFSGSGSGTDFTLTISSLQPEDFATYYCQQHLRVPFTFGQGTKVEIKR
notes: VK dAb
B6: ABT1-98 (other)
VH: EVQLLESGGGLVQPGGSLRLSCAASGFTFDGYIMSWVRQAPGKGLEWVSTISPLGSVTYYADSVKGRFTISRDNSKNTLYLQMNSLRAEDTAVYYCAKKGPWFDYWGQGTLVTVSS
notes: VH dAb
B7: ABT1-86 (other)
VH: EVQLLESGGGLVQPGGSLRLSCAASGFTFDRYIMAWVRQAPGKGLEWVSSITPSGAATYYADSVKGRFTISRDNSKNTLYLQMNSLRAEDTAVYYCAEEPADRYSTWTFDYWGQGTLVTVSS
notes: VH dAb
B8: ABT2-13 (other)
VH: EVQLLESGGGLVQPGGSLRLSCAASGFTFRDYVMYWARQAPGKGLEWVSRIDPMGSSTYYADSVKGRFTISRDNSKNTLYLQMNSLRAEDTAVYYCAKPEGNFDYWGQGTLVTVSS
notes: VH dAb
B9: ABT2-108 (other)
VH: EVQLLESGGGLVQPGGSLRLSCAASGFTFAEYTMMWVRQAPGKGLEWVSRIGQDGKNTYYADSVKGRFTISRDNSKNTLYLQMNSLRAEDTAVYYCAKYTGRVGVHHLFDYWGQGTLVTSS
notes: VH dAb
B10: ABT2-46 (other)
VL: DIQMTQSPSSLSASVGDRVTITCRASQSIIEWLSWYQQKPGKAPKLLIYRTSVLQSGVPSRFSGSGSGTDFTLTISSLQPEDFATYYCQQNEFWPFTFGQGTKVEIKR
notes: VK dAb
B11: ABT2-76 (other)
VL: B10 VL with I30D, E31R, S34A, T51G, V53I, N91V, E92A, F96P
notes: VK dAb
B12: ABT2-42 (other)
VL: B10 VL with S28Y, I30E, E31K, S34T, K45T, T51G, V53L, N91T, F93Y
notes: VK dAb
B13: ABT2-65 (other)
VH: EVQLLESGGGLVQPGGSLRLSCAASGFTFEDYQMGWVRQAPGKGLEWVSSISAMGNRTYYADSVKGRFTISRDDSKNTLYLQMNSLRAEDTAVYYCAKNLVRTQSKMWMFDYWGQGTLVTVSS
notes: VH dAb
B14: ABT1-6 (other)
VH: B2 VH with V30G, R31A, A35Q, Y52N
B15: ABT1-6-3 (other)
VH: B2 VH with V30G, R31A, A35Q
B16: ABT1-6-15 (other)
VH: B2 VH with Y52N
B17: ABT1-141-47 (other)
VL: B5 VL with S26N, Y53H, E81Q, F96M
B18: ABT1-141-76 (other)
VL: B5 VL with S26N, Y53H, F96M
B19: ABT1-141-25 (other)
VL: B5 VL with F96M
B20: ABT2-108-620x/ABT1-122 huIgG1/K wt (bispecific antibody, V domains shown)
VH: EVQLLESGGGLVQPGGSLRLSCAASGFTFAEESWMWVRQAPGKGLEWVSRIGQDGKNTYYREDVKGRFTISRDNSKNTLYLQMNSLRAEDTAVYYCAKYTGRIMGHHLFDYWGQGTLVTVSS
VL: DIQMTQSPSSLSASVGDRVTITCRASQPIWTELNWYQQKPGKAPKLLIYGSSSLQSGVPRFSGSGSGTDFTLTISSLQPEDFATYYCQQFAYFPATFGQGTKVEIKR
B21: ABT2-108/ABT1-122-511 hu IgG1/K wt (bispecific antibody, V domains shown)
VH: B9 VH
VL: B4 VL with S56R, Q89K
B22: ABT2-108-620x/ABT1-122-511 huIgG1/K wt (bispecific antibody, V domains shown)
VH: B20 VH
VL: B4 VL with S56R, Q89K
B23: ABT2-108/ABT1-122 hu IgG1/K wt (bispecific antibody, V domains shown)
VH: B9 VH
VL: B20 VL
B24: ABT1-95-4 (other)
VL: B3 VL with H30V, G31R, N50S, I51S, N53Y, Y87H
notes: dAb, Vκ, to IL-1α
B25: ABT2-108-605/ABT1-122 hu IgG1/K wt (bispecific antibody, V domains shown)
VH: B20 VH with E32Y, S33T, W34M, I103V, M104G, G105V
VL: B20 VL
B26: ABT1-95-A6 (other)
VL: DIQMTQSPSSLSASVGDRVTITCRASKPGVRNMRWYQQKPGKAPKLLIYAKSYLEPGVPSRFSGSGSGTDFTLTISSLQPEDFATYHCKQGYRWPVQFGQGTKVEIKR
B27: ABT1-95-181 (other)
VL: B26 VL with G29I, A50S, K51V, K89L, V96P, Q97T

These binders were tested against T1, human IL-1α (assay: BIAcore (SPR)).

Kd	Binder
1.1 nM	B1
61 nM	B2
45 nM	B3
42 nM	B4
300 nM	B5
13 nM	B6
110 nM	B7

What follows are binders tested against T3, human IL-1β (human, UniProt P01584 117-269) (assay: BIAcore (SPR)).
T3 construct: also called IL-1beta; hIL-1β

Kd	Binder
930 nM	B8
110 nM	B9
2800 nM	B10
1300 nM	B11
54000 nM	B12
28 nM	B13

The binders below were run against T2, human IL-1α (assay: cell-based or functional assay).

MRC5 ND50	Binder
15 µM	B14
0.08 µM	B15
2 µM	B16

Biological target: T2, human IL-1α
Experiment: cell-based or functional assay
Remark: another data set of the same source

MRC5 ND50	Binder
1 nM	B17
1 nM	B18
5 nM	B19

These binders were tested against T1, human IL-1α (assay: cell-based or functional assay).

MRC5 ND50	Binder
11 nM	B1
800 nM	B3
50 nM	B4
50 nM	B5
30 nM	B6
900 nM	B7

Each binder was assayed against T3, human IL-1β (assay: cell-based or functional assay).

MRC5 ND50	Binder
~1000 nM	B8
200 nM	B9
386 nM	B10
456 nM	B11
770 nM	B12
266 nM	B13

Each binder was assayed against T1, human IL-1α (assay: Table 62 KD; BIAcore presumed).

Kd	Binder
6 nM	B2

Biological target: T2, human IL-1α
Experiment: cell-based or functional assay
Remark: another data set of the same source

IL-1α IC50	Binder
150 nM	B20
40 nM	B21

These binders were tested against T4, human IL-1β (human, UniProt P01584 117-269) (assay: cell-based or functional assay).

IL-1β IC50	Binder
0.05 nM	B20
8 nM	B21
0.01 nM and 0.02 nM and 0.03 nM	B22
15 nM and 20 nM and 40 nM	B23

The binders below were run against T2, human IL-1α (assay: method not given).

Kd	Binder
0.9 nM	B24

Biological target: T4, human IL-1β
Experiment: cell-based or functional assay
Remark: another data set of the same source

MRC-5 IL-1β neutralization potency	Binder
~0.35 nM	B25
~0.05 nM	B20
~8 nM	B21
~0.03 nM	B22
~15 nM	B23

Biological target: T1, human IL-1α
Experiment: cell-based or functional assay
Remark: another data set of the same source

ND50	Binder
17 nM	B1
30 nM	B2
800 nM	B3
100 nM	B4
142 nM	B5
< 100 nM	B6
900 nM	B7

Biological target: T2, human IL-1α
Experiment: cell-based or functional assay
Remark: another data set of the same source

MRC5 ND50	Binder
900 pM	B24
24 pM	B26
14 pM	B27

What follows are binders tested against T1, human IL-1α (assay: Table 62 IC50; RBA presumed).

IC50	Binder
30 nM	B2
500 nM	B3
80 nM	B4
1000 nM	B7

Biological target: T2, human IL-1α
Experiment: cell-based or functional assay
Remark: another data set of the same source

MRC5 IL-1α	Binder
80 nM	B21

Biological target: T4, human IL-1β
Experiment: cell-based or functional assay
Remark: another data set of the same source

MRC5 IL-1β	Binder
8 nM	B21
